Measured values reported in patent US20210285024A1 (CENTRE NATIONAL DE LA RECHERCHE SCIENTIFIQUE CNRS, published 2021).

Molecular target: T1, recombinant human Vasohibin-2 (VASH2) (Homo sapiens, UniProt Q86V25 1-355, limits assumed)
T1 construct: Produced in E. coli (pET-28a(+)/pGEX) and purified by IMAC and ion exchange
Assay: recombinant complex purified and used as detyrosinase; no direct binding assay described

T1 sequence (Q86V25 whole entry): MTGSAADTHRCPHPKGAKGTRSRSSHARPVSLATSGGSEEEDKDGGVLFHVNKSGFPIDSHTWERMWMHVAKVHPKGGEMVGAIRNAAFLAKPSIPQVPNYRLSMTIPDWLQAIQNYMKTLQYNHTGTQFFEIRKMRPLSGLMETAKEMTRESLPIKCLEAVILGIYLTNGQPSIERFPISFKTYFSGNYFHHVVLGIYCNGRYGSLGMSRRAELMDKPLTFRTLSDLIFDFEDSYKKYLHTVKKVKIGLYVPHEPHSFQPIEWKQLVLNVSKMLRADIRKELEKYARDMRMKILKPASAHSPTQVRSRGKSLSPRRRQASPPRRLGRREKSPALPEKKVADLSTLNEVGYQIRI

- binding result: binds
B1: Small vasohibin-binding protein (SVBP) (other)
chain: MDPPARKEKTKVKESVSRVEKAKQKSAQQELKQRQRAEIYALNRVMTELEQQQFDEFCKQMQPPGE
notes: Coexpressed with VASH1 or VASH2
